Kd, koff and kon data for one molecule are collected here from article PMC5879659 (Proceedings of the National Academy of Sciences of the …, 2018).

Square brackets hold non-standard residues; d marks the D form. Ends that are not written are not given here. Hyp = O=C(O)[C@@H]1C[C@@H](O)CN1

This assay has as its target T1, HAESA LRR ectodomain (Arabidopsis thaliana, UniProt P47735 15-621).
T1 sequence (looked up): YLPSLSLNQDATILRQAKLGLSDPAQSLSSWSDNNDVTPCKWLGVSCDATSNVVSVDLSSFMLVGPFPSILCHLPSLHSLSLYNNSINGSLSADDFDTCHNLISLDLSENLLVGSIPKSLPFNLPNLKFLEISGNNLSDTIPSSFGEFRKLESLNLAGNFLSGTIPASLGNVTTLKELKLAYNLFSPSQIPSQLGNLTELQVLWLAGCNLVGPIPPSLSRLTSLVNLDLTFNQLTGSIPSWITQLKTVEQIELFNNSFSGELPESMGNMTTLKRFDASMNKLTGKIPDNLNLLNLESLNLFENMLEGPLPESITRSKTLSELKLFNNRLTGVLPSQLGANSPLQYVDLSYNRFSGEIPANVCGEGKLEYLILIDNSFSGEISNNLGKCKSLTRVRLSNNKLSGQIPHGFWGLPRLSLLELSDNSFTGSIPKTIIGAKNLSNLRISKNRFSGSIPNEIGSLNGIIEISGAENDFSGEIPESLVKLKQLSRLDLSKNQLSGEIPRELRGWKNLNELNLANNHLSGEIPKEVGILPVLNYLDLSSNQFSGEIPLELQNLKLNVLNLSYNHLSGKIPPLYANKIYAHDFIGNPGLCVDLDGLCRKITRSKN
Nature of the assay: grating-coupled interferometry.

YVPIPPSA[Hyp]SKRHN [INFLORESCENCE DEFICIENT IN ABSCISSION (IDA) peptide, Y-IDA] had an equilibrium dissociation constant (Kd) of roughly 30 µM, a koff of roughly 2 s⁻¹ and a kon of roughly 60000 M⁻¹ s⁻¹.

One may read the Kd as a measure of binding affinity in units of concentration. A higher Kd goes with lower affinity. In general, koff refers to the first-order rate constant of dissociation. For orientation: kon means the second-order rate constant of association.
